Entries after “also recorded” stand apart in the source; their conditions may differ.
How the values were obtained:
[1] = system: murine cells expressing the B4.3.2 TCR, DMF5 human T cells expressing the MART-1 TCR, NY-ESO-1 human T cells expressing the NY-ESO-1 TCR; assay: flow cytometry staining of TCR-expressing cells with pMHC-I tetramers; assay type: cell-based; conditions: TAPBPR at up to 1:100 molar ratio with MHC-I
Procedure: Flow cytometry was performed using commercially available tetramers prepared by currently available methods (“conventional”), as well as by the disclosed methods involving TAPBPR peptide exchange using a stoichiometric amount of TAPBPR (“exchanged stoichiometric”), a catalytic amount of TAPBPR (1:100 TAPBPR: MHC-I) (“exchanged catalytic”) or a mismatched peptide. […]. Tetramers prepared by the disclosed methods performed similarly to tetramers commercially produced using conventional methods.
FIG. 7C illustrates a titration of P18410/H-2D^d binding to B.4.2.3 cells (top), HLA-A*2:01/MART-1 binding to DMF5 cells (middle) and HLA-A*2:01/NY-ESO-1 peptide binding to NY-ESO-1 cells (bottom). The binding compares commercially available pMHC-I tetramers prepared using conventional methods (refolded) with pMHC-I tetramers prepared using the disclosed methods. […]. Data shown is representative of triplicate assays and error-bars are standard deviation from the mean.
Tetramer formation The procedure for production of peptide loaded tetramers using TAPBPR mediated exchange is described in See, e.g., Overall et al., “High Throughput pMHC-I Tetramer Library Production Using Chaperone Mediated Peptide Exchange,” bioRxiv, doi:10.1101/653477 (2019), which is hereby incorporated by reference in its entirety herein. […]

[2] = biological target: goldilocks/HLA-A*02:01 (Homo sapiens, UniProt P04439); assay: native gel electrophoresis assay of TAPBPR-mediated peptide exchange on p*MHC-I; conditions: overnight incubation, excess peptide of interest, TAPBPR:MHC molar ratio 1:1 down to 1:1000
[3] = biological target: T1, TAPBPR/HLA-A02 complexes (Homo sapiens, UniProt P04439); assay: native gel electrophoresis: release of HLA-A02 from tetramerized TAPBPR/HLA-A02 complexes by peptide; assay type: binding; conditions: biotinylated TAPBPR/HLA-A02 tetramerized with Streptavidin-PE; TAX 25, 125 or 2500 pmol; P18-I10 2500 pmol; 12% acrylamide gel
T1 construct: Plasmid DNA encoding the luminal domain of class I MHC (MHC-I) heavy chains H2-D^d, HLA-A*02:01; made in house
Source text: The peptide receptive MHC-I complexes were isolated by gel filtration and tetramerized with Streptavidin-PE.

Row | Substance | peptide exchange catalysed by TAPBPR (FIGS. 7A-7C) [1] | peptide exchange on goldilocks/HLA-A*02:01 (formation of pMHC species) [2] | release of HLA-A02 proteins from the TAPBPR/HLA-A02 complexes (native gel) [3]
1 | TAPBPR: molecular chaperone; recombinant luminal domain expressed in Drosophila S2 cells | catalyzes efficient peptide exchange when present at up to 1:100 molar ratio with MHC-I | complete peptide exchange; also recorded: catalyzes efficient peptide exchange when present at up to 1:1000 molar ratio with MHC-I | –
2 | RGPGRAFVTI [P18-I10] | – | – | showed no HLA-A02 proteins
